Residue numbers refer to the chain shown, from its start. In names and notes the source's numbering stands.

First the molecules themselves.
B1: H1H27766P2-N297Q (antibody, human IgG1, V domains shown)
VH: EVQLVESGGGLVQPGGSLRLSCAASGFTFSSFAMSWVRQAPGKELEWVSSISGRGGSTYYADSVRGRFTISRDNSKITLYLQMNSLRAEDTAVYYCAKDIVFRYTSSAYWYFDLWGRGTLVTVSS
VL: not shown
notes: human IgG1 Fc with N297Q; also called H1H27766P-N297Q
B2: H1H27731P-N297Q (antibody, V domains shown)
VH: QLQLQESGPGLVKPSETLSLTCTVSGGSISRISYYWGWIRQPPGKGLEWIGSIYDSGSTYYNPSLKSRVTISIDTSKNQFSLKLSSVTAADTAVYYCVRYSSSSAFAFDYWGQGTLVTVSS
VL: DIQMTQSPSSVSASVGDRVTITCRASQGISSWLAWYQQKPGKAPKLLIYAASSLQSGVPSRFSGSGSGTDFTLTISSLQPEDFATYYCQQANSFPFTFGPGTKVDIKR
notes: human IgG1 Fc with N297Q
B3: H1H27747P-N297Q (antibody, human IgG1, V domains shown)
VH: QVQLVESGGAVVQPGRSLRLSCAASGFTFSYYGMHWVRQAPGKGLEWVAVISYDGSKKYYADSVKGRFTISRDNSKNTLYLQMNSLRAEDTAVYYCAKDLTVDFYYGMDVWGQGTTVTVSS
VL: B2 VL with A51T, V58A, Y87F, F96Y, P100Q, V104L, D105E
notes: human IgG1 Fc with N297Q
B4: H1H27754P-N297Q (antibody, human IgG1, V domains shown)
VH: EVQLVESGGGLVQPGGSLRLSCAASGFTFRTYAMTWVRQAPGKGLDWVSAITGDGGNTYYADSVKGRFTISRDNSKNTLYLQMNSLRAEDTAIYYCAKDQRFSFALYYFDYWGQGTLVTVSS
VL: B2 VL with K42N, S52F, S93N, F96W, P100Q, D105E
notes: human IgG1 Fc with N297Q
B5: H1H27761P2-N297Q (antibody, human IgG1, V domains shown)
VH: EVQLVESGGDLVQPGGSLRLSCSASGFTFNIYAMSWVRQAPGKGLEWVSGISGSGGSTYYADSVKGRFTISRDNSKNTLYFQMNSLRVEDTAVYYCAKKISSSSYYYYAMDVWGQGTTVTVSS
VL: not shown
notes: human IgG1 Fc with N297Q; also called H1H27761P-N297Q
B6: H1H27759P2-N297Q (antibody, human IgG1, V domains shown)
VH: EVQLVESGGGFVQPGGSLRLSCAASGFTFSSYAMSWVRQAPGKGLEWVSAISGTGSNTYYADSVKGRFTISRDNSKNTLYLQMNSLRAEDTAVYYCAKDRVTTVTYYFDYWGQGTLVTVSS
VL: not shown
notes: human IgG1 Fc with N297Q; also called H1H27759P-N297Q
B7: H1H27729P-N297Q (antibody, human IgG1, V domains shown)
VH: QVQLVESGGGLVKPGGSLRLSCAASGFIFSDYYMSWIRQAPGKGLEWVSYISSSGTTIYGDSVKGRFTMSRDNAKNSLYLQMNSLRAEDTAVYYCARNYALFDYWGQGTLVTVSS
VL: DIQMTQSPSSLSASVGDRVTITCQASQDISKYLNWYQQKPGKAPKLLIYYTSNLETGVPSRFSGSGSGTDFTFTISSLQPEDIATYYCHQSDYLPFTFGPGTKVDIKR
notes: human IgG1 Fc with N297Q
B8: H1H27762P2-N297Q (antibody, human IgG1, V domains shown)
VH: QVQLVQSGAEVKKPGSSVKVSCKASGGTFSRYDISWVRQAPGQGLEWMGGIIPIFGTSNYAQKFQGRVTITTDESTSTVYMELSSLRSEDTAVYYCARGGRYGWFDPWGQGTLVTVSS
VL: not shown
notes: human IgG1 Fc with N297Q; also called H1H27762P-N297Q
B9: H1H27734P-N297Q (antibody, human IgG1, V domains shown)
VH: EVQLVESRGGLVQPGGSLRLSCAASGFTFSSYAMSWVRQAPGKGLEWVSAISGSGGSTFYADSVKGRFTISRDNSKNTVYLQMNSLRAEDTAVYYCAKALVLRFLEWLGDYWGQGTLVTVSS
VL: DIQMTQSPSTLSASVGDRVTITCRASQSISSWLAWFQQKPGKAPKLLIYKASSLESGVPSRFSGSGSGTEFTLTISSLQPDDFATYYCQQYKSYWTFGQGTKVEIKR
notes: human IgG1 Fc with N297Q
B10: H1H27751P-N297Q (antibody, human IgG1, V domains shown)
VH: EVQLVESGGGLVQPGGSLRLSCAASGFTFSNYAMHWVRQAPGKGLEYVSAISSNGGSTYYADSVKGRITISRDNSKNTLYLQMGSLRAEDMAVYYCARGRPYYYYFGMDVWGQGTTVTVSS
VL: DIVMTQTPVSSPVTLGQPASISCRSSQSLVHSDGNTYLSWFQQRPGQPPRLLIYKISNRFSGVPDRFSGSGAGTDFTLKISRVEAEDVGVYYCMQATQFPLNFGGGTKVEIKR
notes: human IgG1 Fc with N297Q
B11: H1H27739P-N297Q (antibody, human IgG1, V domains shown)
VH: EVQLVESGGGLVQPGGSLRLSCTASGFTFSSYAMSWVRQAPGKGLEWVSAISGTGSSTYFTDSVKGRFAISRDNSKNTLYLQMNSLRAEDTAVYYCAKDGEWLSTVTLFDYWGQGTLVTVSS
VL: EIVMTQSPATLSVSPGERATLSCRASQSVSSNLAWYQQKPGQAPRLLIYGASTRATGIPARFSGSGSGTDFTLTISSLQSEDFALYYCQQYFIWPPHPTFGPGTKVDIKR
notes: human IgG1 Fc with N297Q
B12: H1xH29282P2 (antibody, V domains shown)
VH: EVQLVESGGGLVQPGGSLRLSCAASGFTFSTYAMSWVRQAPGKGLEWVSTISGRSDITYFADSVKGRFTVSRDNSKTTLYLQMNSLRAEDTAVYYCATDDDLPLDYWGQGTLVTVSS
VL: not shown
notes: prefix H1xH not explained for the anti-MSR1 antibodies
B13: H2aM21229N (antibody, mouse IgG2a, V domains shown)
VH: EVQLVESGGGLVKPGGSLRLSCAASGFTFSRYSMNWVRQAPGKGLEWVSSISSSSSYIYYGDTVKGRFTISRDNAKKSLYLQMNSLRAEDTAVYYCVRDRGQLVLYFDYWGQGTLVTVSS
VL: DIQMTQSPASLSTSIRDRVTITCRASLSISSFLNWFQQRPGKAPKLLIYVASNLQSGVPSRFSDSGSGTDFTLTISSLQPEDFATYYCQQNYSTPPITFGQGTRLEIK
notes: mouse IgG2a Fc

The first assay addresses T1, mouse MSR1 on RAW264.7 cells (mouse, UniProt P30204 1-458).
T1 construct: whole, on cells
T1 sequence (looked up): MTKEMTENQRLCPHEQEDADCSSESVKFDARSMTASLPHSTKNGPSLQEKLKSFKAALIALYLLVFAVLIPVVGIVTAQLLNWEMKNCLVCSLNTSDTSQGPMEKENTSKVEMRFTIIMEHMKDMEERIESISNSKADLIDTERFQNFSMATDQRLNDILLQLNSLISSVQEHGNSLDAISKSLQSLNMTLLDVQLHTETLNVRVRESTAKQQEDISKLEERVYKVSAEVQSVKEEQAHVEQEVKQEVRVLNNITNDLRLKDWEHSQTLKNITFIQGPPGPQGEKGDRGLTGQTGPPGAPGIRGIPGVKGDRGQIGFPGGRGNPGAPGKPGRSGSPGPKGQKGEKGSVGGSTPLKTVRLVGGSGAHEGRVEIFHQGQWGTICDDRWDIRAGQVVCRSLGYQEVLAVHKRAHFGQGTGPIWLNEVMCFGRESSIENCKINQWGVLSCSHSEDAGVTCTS
Kind of assay: flow cytometry, RAW264.7 cells, 10 ug/mL.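 Further: antibodies bound to RAW264.7 cells for 30 min on ice after Fc block with mouse IgG, S/N is MFI relative to unstained cells.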
Procedure: To block binding to Fc receptors, RAW264.7 cells were incubated for 30 minutes at 4° C. with 500 μg/mL mouse IgG (Jackson ImmunoResearch, Cat #015-000-003) diluted in staining buffer, while B16F10.9 cells remained in staining buffer. Following Fc receptor blocking, 10 μg/mL of anti-MSR1 antibodies or an isotype control antibody were added to the cells and were subsequently incubated for 30 minutes on ice. […] The signal to noise (S/N) was determined by calculating the ratio of the anti-MSR1 antibodies or the control antibodies MFI to the unstained sample MFI (Table 16).
B1: the MFI was 3810 and the S/N turned out to be 1.

With B2, the MFI was 3510 and the S/N stood at 1.

Molecule B3 displayed an MFI of 3630 and a S/N of 1.

Take B4: the MFI worked out at 5410 and the S/N was 1.

The molecule B5 had an MFI of 3840 and a S/N of 1.

As for B6, the MFI was 3290 and the S/N was found to be 1.

In the case of B7, the MFI is 3480 and the S/N stood at 1.

Take B8: the MFI was 3520 and the S/N was determined as 1.

B9 returned an MFI of 4780 and a S/N of 1.

Take B10: the MFI amounted to 3820 and the S/N is 1.

B11 came in with an MFI of 3270 and a S/N of 1.

A further assay concerns the target T2, full length human MSR1 with a C-terminal Myc tag on HEK293.Myc.hMSR1 cells (human, UniProt P21757 1-451).
T2 construct: whole, on cells
T2 sequence (looked up): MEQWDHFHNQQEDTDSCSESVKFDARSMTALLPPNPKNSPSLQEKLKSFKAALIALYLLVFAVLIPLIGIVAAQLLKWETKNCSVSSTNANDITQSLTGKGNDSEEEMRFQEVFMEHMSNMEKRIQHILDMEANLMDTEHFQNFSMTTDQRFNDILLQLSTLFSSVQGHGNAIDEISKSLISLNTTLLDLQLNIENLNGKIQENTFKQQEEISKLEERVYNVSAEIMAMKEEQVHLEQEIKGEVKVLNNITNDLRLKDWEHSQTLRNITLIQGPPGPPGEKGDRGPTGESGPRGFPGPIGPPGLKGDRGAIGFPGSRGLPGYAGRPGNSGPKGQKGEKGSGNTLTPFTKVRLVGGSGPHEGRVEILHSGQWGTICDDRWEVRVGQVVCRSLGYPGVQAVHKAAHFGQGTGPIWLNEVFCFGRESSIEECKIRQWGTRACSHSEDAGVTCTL
In words: ECL cell binding, HEK293.Myc.hMSR1.
Procedure: (§1) All cells were washed once with 1×PBS with Ca²⁺/Mg²⁺ and counted with a Cellometer™ Auto T4 cell counter (Nexcelom Bioscience). Approximately 1.0×10⁴ cells were seeded separately onto 96-well carbon electrode plates [MULTI-ARRAY high bind plate, Meso Scale Diagnostics] and incubated for 1 hour at 37° C. Non-specific binding sites were then blocked by 2% BSA (w/v) in PBS with Ca²⁺/Mg²⁺ for 1 hour at room temperature. THP-1 cells were pre-incubated for 0.5 hours at room temperature in sample dilution buffer with: 1) 1 mg/mL Fc receptor block reagents to block Fc gamma receptors on THP-1 cell surface [whole molecule human IgG (Jackson Immunoresearch, Cat #009-000-003) for wells being tested with anti-MSR1-mFc antibodies or 2) whole molecule mIgG (Jackson Immunoresearch, Cat #015-000-003) for wells being tested with anti-MSR1-hFc antibodies. Antibody binding on HEK293.Myc.hMSR1, HEK293.mfMSR1 and HEK293 cells was tested without Fc receptor block reagents. […] Plates were then washed to remove unbound antibodies an AquaMax2000 plate washer with a cell washing head (MDS Analytical Technologies). […] Plates were washed and developed with Read Buffer (Meso Scale Diagnostics, Cat #R92TD-2) according to manufacturer's recommended procedure and luminescent signals were recorded with a SECTOR Imager 600 (Meso Scale Diagnostics). Luminescence intensity, measured in relative light units (RLU), was recorded to indicate the binding intensity of each antibody at the range of concentrations.
Take B1: the “binding signal ratio to isotype control (11 nM)” value (“binding signal ratio” for short) came to 20 fold.

As to B2, the “binding signal ratio” value came out at 48 fold.

As for B3, the “binding signal ratio” value came to 26 fold.

As for B4, the “binding signal ratio” value came to 55 fold.

With B12, the “binding signal ratio” value came to 9 fold.

For the molecule B5, the “binding signal ratio” value turned out to be 23 fold.

As to B6, the “binding signal ratio” value is 23 fold.

For B7, the “binding signal ratio” value came to 17 fold.

For the molecule B8, the “binding signal ratio” value came out at 33 fold.

Regarding B9, the “binding signal ratio” value worked out at 40 fold.

Turning to B10, the “binding signal ratio” value came out at 63 fold.

For the molecule B13, the “binding signal ratio” value was found to be 78 fold.

Take B11: the “binding signal ratio” value was determined as 22 fold.

A further assay deals with T3, full length monkey MSR1 on HEK293.mfMSR1 cells (Macaca fascicularis, UniProt A0A2K5UWE2 1-451).
T3 construct: whole, on cells
T3 sequence: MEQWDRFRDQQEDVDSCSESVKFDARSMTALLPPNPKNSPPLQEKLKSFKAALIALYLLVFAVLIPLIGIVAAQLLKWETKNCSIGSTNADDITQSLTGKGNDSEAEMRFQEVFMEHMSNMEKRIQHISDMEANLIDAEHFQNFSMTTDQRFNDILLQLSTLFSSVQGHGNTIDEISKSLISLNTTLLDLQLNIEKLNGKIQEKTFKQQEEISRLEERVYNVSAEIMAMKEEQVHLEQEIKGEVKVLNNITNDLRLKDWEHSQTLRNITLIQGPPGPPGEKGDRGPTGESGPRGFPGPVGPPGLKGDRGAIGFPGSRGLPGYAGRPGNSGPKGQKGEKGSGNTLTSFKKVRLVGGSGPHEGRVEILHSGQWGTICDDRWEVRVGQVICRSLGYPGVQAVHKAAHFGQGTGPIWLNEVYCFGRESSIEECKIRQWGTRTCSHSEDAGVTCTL
In words: ECL cell binding, HEK293.mfMSR1.
Procedure: as §1
Turning to B1, the “binding signal ratio” value came to 13 fold.

In the case of B2, the “binding signal ratio” value was determined as 43 fold.

As to B3, the “binding signal ratio” value was determined as 21 fold.

For the molecule B4, the “binding signal ratio” value was determined as 53 fold.

Turning to B12, the “binding signal ratio” value was found to be 1 fold.

Consider B5, for which the “binding signal ratio” value is 15 fold.

With B6, the “binding signal ratio” value was determined as 25 fold.

For B7, the “binding signal ratio” value turned out to be 6 fold.

On to B8, for which the “binding signal ratio” value is 25 fold.

Regarding B9, the “binding signal ratio” value was determined as 28 fold.

B10: the “binding signal ratio” value is 49 fold.

In the case of B13, the “binding signal ratio” value came to 27 fold.

Consider B11, for which the “binding signal ratio” value was found to be 20 fold.

The values above are taken from patent US20200368361A1 (Regeneron, published 2020).
